According to the RNAGym collection of RNA variant scans (doi:10.1073/pnas.2313332121):
Fewer inactive variants are shown than the library holds.

B1: TPR 5TU (parent)
chain: GGAUCUUCUCGAUCUAACAAAAAAGACAAAUCUGCCACAAAGCUUGAGAGCAUCUUCGGAUGCAGAGGCGGCAGCCUUCGGUGGCGCGAUAGCGCCAACGUUCUCAACUAUGACACGCAAAACGCGUGCUCCGUUGAAUGGAGUUUAUCAUG

Variants of: B1
Assay: polymerase ribozyme fitness, log enrichment relative to wild type (log ratio); higher = more active; in vitro selection for triplet polymerase activity
Summary of the method: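 In triplicate, a single round of in vitro selection was run on each mutant library, PCR-built and transcribed, covering one subunit of a heterodimeric triplet polymerase ribozyme. Frozen incubation at −7 °C followed annealing with a biotinylated primer, partner subunit and triplets, and extended constructs were then gel-excised, streptavidin-captured and taken through RT-PCR. Fitness is the logarithm of genotype enrichment over wild-type enrichment, from inverse-variance-weighted replicate averages of Illumina-sequenced inputs and outputs. […] only genotypes with ≥10 input reads and ≥1 read per output were kept.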

Row | Variant | polymerase ribozyme fitness (log ratio)
1 | U61G G86A | -2.45
2 | A60U A89C | -0.611
3 | U61G C63A G71U G80A G94U C105G C116G U139A | ≤ -4.2
4 | U61A C129U | -3.55
5 | U61C G126A | -0.237
6 | A60G C95U | -0.927
7 | A60U G84U U102G | -4.18
8 | U61G C69G U82A C95A A122U U148C | ≤ -4.2
9 | G62C C93U U135A | -3.41
10 | A60G G81A A97U C99U | -1.35
11 | A60G G71A G141U | ≤ -4.2
12 | G62A G70A G71A G80C C87U C108U | ≤ -4.2
13 | G62C G83A | -2.25
14 | U61C C96A | -3.31
15 | G62U G94U C96U | -3.88
16 | A60U U127G | -3.08
17 | A60U C99U C118U | -2.07
18 | A60U G136C U139G | -3.71
19 | A60U U61A A142C | -3.49
20 | A60G U61G G81C A122C A142U | -3.02
21 | C63G C93A A98G C116U G140C | ≤ -4.2

Row | Variant | polymerase ribozyme fitness (log ratio)
22 | C63G | 0.136
23 | C63A | 0.15
24 | U61G G94A A106C C116A G133C U146A | ≤ -4.2
25 | U61A C72U | -3.66
26 | C63G A66G G71A G74U U135G G143C | ≤ -4.2
27 | U61G G74U G83A | ≤ -4.2
28 | U61A G80A | -2.08
29 | A60U C87A C95A C108A A110G | -4.07
30 | G62U A115C | -1.97
31 | G62U U77A G86U C99G | ≤ -4.2
32 | U61A G84U C114U | -3.85
33 | A60U G84U C95G | 0.318
34 | G62C | -1.07
35 | G62A | -0.367
36 | G62U | -0.546
37 | A60G U134A | -1.8
38 | A60G U134G | -2.14
39 | U61A C63U G133U | ≤ -4.2
40 | U61A C79G U82C C132G | ≤ -4.2
41 | U61A C105U U134G U139G | -4.18
42 | A60C U148G A150U | ≤ -4.2

Row | Variant | polymerase ribozyme fitness (log ratio)
43 | G62A C69U G92C | -3.74
44 | U61C C85A A121G U135A | ≤ -4.2
45 | A60G C93A A97C A110U C123U U130G G133A | ≤ -4.2
46 | A60G C96G | -0.394
47 | U61A A73G G80U | ≤ -4.2
48 | U61G G92A | ≤ -4.2
49 | U61G U77G G92A C96A G143U | ≤ -4.2
50 | A60G A73U C93U | -1.38
51 | A60C A73G C96U U101G | -3.45
52 | A60U C96U | -0.416
53 | A60C C63U U77C G128U A150G G152A | ≤ -4.2
54 | G62A C99U | -2.24
55 | A60G G94A U102A C123G | -1.46
56 | A60G G92A C96U A121C | -2.75
57 | U61A A64C G71A G86A A91C C93U C118G | ≤ -4.2
58 | U61G C99G A138G | ≤ -4.2
59 | C63A G92C | -1.03
60 | G62A A66G G86U A121G U127C | ≤ -4.2
61 | U61A U90G U139C | ≤ -4.2
62 | U61G A66C G133C | ≤ -4.2
63 | U61G C75G G88U A89U U101A G140C | ≤ -4.2

Row | Variant | polymerase ribozyme fitness (log ratio)
64 | U61A U82A | -1.03
65 | U61A U78A C95U C123A U146A | ≤ -4.2
66 | A60U C79U A98G C103A | ≤ -4.2
67 | U61A A91C G100C A142U | ≤ -4.2
68 | A60C U82G G86A U146G | -3.33
69 | U61A C87U U102C C103G U130C | ≤ -4.2
70 | A60G C93G | -3.44
71 | U61A C96G U109A | -3.32
72 | A60G A107U C131G | ≤ -4.2
73 | G62C C85A C99G U151G | ≤ -4.2
74 | A60G G68U G80C U139A | ≤ -4.2
75 | U61A A91U | ≤ -4.2
76 | A60U | -0.665
77 | A60G | 0.0111
78 | A60C | -0.597
79 | U61G C85A | -2.29
80 | A60G G117A | 0.434
81 | A60U A150C | -3.39
82 | A60G U77G C87U C132G | ≤ -4.2
83 | A60U C87G | ≤ -4.2
84 | A60U C85U U148C | -3.17
